From patent publication US20060063223A1 (CHEMOCENTRYX, published 2006)

Key:
[1] = target: T1, human CCR1 (C-C chemokine receptor-1) (human, UniProt P32246 1-355); assay: cell-based or functional assay
T1 sequence (looked up): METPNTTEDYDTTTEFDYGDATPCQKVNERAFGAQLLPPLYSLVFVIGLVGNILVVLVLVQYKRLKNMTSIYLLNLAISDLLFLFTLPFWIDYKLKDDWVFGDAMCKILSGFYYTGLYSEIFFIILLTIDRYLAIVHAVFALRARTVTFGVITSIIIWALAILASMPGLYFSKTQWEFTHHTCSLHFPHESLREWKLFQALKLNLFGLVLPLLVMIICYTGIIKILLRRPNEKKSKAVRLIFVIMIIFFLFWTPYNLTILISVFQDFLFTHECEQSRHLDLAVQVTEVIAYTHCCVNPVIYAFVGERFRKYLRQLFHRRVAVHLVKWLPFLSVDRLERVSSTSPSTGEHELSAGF

[2] = target: T2, human FPRL1 (formyl peptide receptor like 1) (human, UniProt P25090 1-351); assay: cell-based or functional assay
T2 sequence (looked up): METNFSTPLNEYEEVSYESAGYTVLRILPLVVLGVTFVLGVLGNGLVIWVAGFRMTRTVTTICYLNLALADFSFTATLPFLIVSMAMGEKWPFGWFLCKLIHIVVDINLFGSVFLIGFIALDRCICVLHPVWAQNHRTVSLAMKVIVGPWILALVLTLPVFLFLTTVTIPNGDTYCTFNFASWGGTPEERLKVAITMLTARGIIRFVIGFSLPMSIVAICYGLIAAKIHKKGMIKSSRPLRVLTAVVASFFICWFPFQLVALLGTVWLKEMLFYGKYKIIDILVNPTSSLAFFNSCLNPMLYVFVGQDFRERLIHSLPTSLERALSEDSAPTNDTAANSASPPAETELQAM

[3] = target: T1, human CCR1 (C-C chemokine receptor-1); assay: competition with 125I-MIP-1α on human monocytes
[4] = target: T1, human CCR1 (C-C chemokine receptor-1); assay: competition with 125I-MIP-1α on L1.2-CCR1 cells, 3 hr at 4° C., filter binding
Procedure: (§1) Binding assay. Competition binding studies were conducted using monocytes, L1.2-CCR1 or L1.2-FPRL1 cells. […] Reactions were aspirated onto PEI-treated GF/B glass filters using a cell harvester (Packard). Filters were washed twice (25 mM HEPES, 500 mM NaCl, 1 mM CaCl₂, 5 mM MgCl₂, adjusted to pH 7.1). Scintillant (MicroScint-10; 35 μl) was added to the filters and counted in a Packard Topcount scintillation counter. Data were analyzed and plotted using Prism (GraphPad Software, San Diego, Calif.).

[5] = target: T1, human CCR1 (C-C chemokine receptor-1); assay: competition with 125I-MIP-1α on human monocytes, 3 hr at 4° C., filter binding
Procedure: as §1

[6] = target: T2, human FPRL1 (formyl peptide receptor …); assay: competition with 125I-WKYMVm on human monocytes, filter binding
Procedure: as §1

[7] = target: T2, human FPRL1 (formyl peptide receptor …); assay: competition with 125I-WKYMVm on L1.2-FPRL1 cells, filter binding
Procedure: as §1

[8] = target: T1, human CCR1 (C-C chemokine receptor-1); assay: competition with 125I-MIP-1α on L1.2-CCR1 cells
Procedure: as §1

Question: What does the source list for “CCL5/RANTES (from UniProt P13501 24-91) (ligand)”?
Answer: EC50, THP-1 cell migration [1]: 500 pM; fold decrease in potency in THP-1 cell chemotaxis relative to CCL15Δ24/LKN-1 [1]: 3 fold

B1: CCL23/CKβ8 digested with chymase (ligand)
chain: HATSADCCISYTPRSIPCSLLESYFETNSECSKPGVIFLTKKGRRFCANPSDKQVQVCMRMLKLDTRIKTRKN
Question: With B1 as the molecule, how does the EC50, THP-1 cell chemotaxis [1] read?
Answer: 50 pM

Question: And the fold decrease of EC50 against undigested CCL23/CKβ8, THP-1 cell chemotaxis [1]?
Answer: 50 fold

B2: CCL15Δ24/LKN-1 (68aa) (ligand)
chain: SFHFAADCCTSYISQSIPCSLMKSYFETSSECSKPGVIFLTKKGRQVCAKPSGPGVQDCMKKLKPYSI
Question: For B2, which “EC50, THP-1 cell chemotaxis” value [1] is on record?
Answer: 60 pM

Question: For MLWRRKIGPQMT [CCXP5], which “potency for receptor signaling in L1.2-FPRL1 cells, relative to SHAAGtide” value [2] is on record?
Answer: 3 fold

B3: CCL23α Δ24 (CCL23Δ24/MPIF-1, 46-120) (ligand)
chain: RFHATSADCCISYTPRSIPCSLLESYFETNSECSKPGVIFLTKKGRRFCANPSDKQVQVCMRMLKLDTRIKTRKN
notes: Recombinant CCL23/CKβ8 lacking the N-terminal 24 residues
Question: With B3 as the molecule, how does the “EC50, THP-1 cell chemotaxis” value [1] read?
Answer: 90 pM

Question: And the “fold increase in binding activity over full-length CCL23α” value [3]?
Answer: > 10 fold

B4: CCL23α (CCL23/CKβ8, 22-120) (ligand)
chain: RVTKDAETEFMMSKLPLENPVLLDRFHATSADCCISYTPRSIPCSLLESYFETNSECSKPGVIFLTKKGRRFCANPSDKQVQVCMRMLKLDTRIKTRKN
Question: For B4, which “EC50, THP-1 cell chemotaxis” value [1] is on record?
Answer: 2500 pM

B5: CCL15/MIP-1δ (92aa) (ligand)
chain: QFINDAETELMMSKLPLENPVVLNSFHFAADCCTSYISQSIPCSLMKSYFETSSECSKPGVIFLTKKGRQVCAKPSGPGVQDCMKKLKPYSI
Question: Which “EC50, THP-1 cell chemotaxis” value [1] does the source give for B5 here?
Answer: 50000 pM

B6: CCL15/MIP-1δ digested with chymase (ligand)
chain: AADCCTSYISQSIPCSLMKSYFETSSECSKPGVIFLTKKGRQVCAKPSGPGVQDCMKKLKPYSI
Question: Which results are given for B6?
Answer: EC50, THP-1 cell chemotaxis [1]: 50 pM; fold increase of potency in THP-1 cell migration over full-length CCL15/MIP-1δ [1]: 1000 fold

B7: CCL23β (ligand)
chain: RVTKDAETEFMMSKLPLENPVLLDMLWRRKIGPQMTLSHAAGFHATSADCCISYTPRSIPCSLLESYFETNSECSKPGVIFLTKKGRRFCANPSDKQVQVCMRMLKLDTRIKTRKN
notes: 116-residue alternatively spliced form; recombinant, special order from R&D Systems; also called CKβ8-1
Question: Does B7 bind [3]?
Answer: binds

Question: How did the “fold decrease in potency for receptor signaling in L1.2-FPRL1 cells, relative to SHAAGtide” value [2] turn out when LWRRKIGPQMTLSHAAG [SHAAGtide lacking the N-terminal amino acid (Met)] was run?
Answer: ~10 fold

B8: CCL3/MIP-1α (ligand, UniProt P10147 27-92, looked up)
chain: ADTPTACCFSYTSRQIPQNFIADYFETSSQCSKPGVIFLTKRSRQVCADPSEEWVQKYVSDLELSA
modifications: also: 125I-labelled when used as tracer
Question: With B8 as the molecule, how does the “EC50, THP-1 cell migration” value [1] read?
Answer: 500 pM

Question: And the “fold decrease in potency in THP-1 cell chemotaxis relative to CCL15Δ24/LKN-1” value [1]?
Answer: ~3 fold

Question: And the IC50 [4]?
Answer: 150 pM

Question: And the IC50 [5]?
Answer: 300 pM

B9: SHAAGtide (MLWRRKIGPQMTLSHAAG) (peptide)
peptide: MLWRRKIGPQMTLSHAAG
notes: Synthetic 18-residue peptide; also called CCXP1; SHAAGtide peptide
Question: With B9 as the molecule, how does the “EC50 in functional assays” value [2] read?
Answer: 10000 to 30000 pM

Question: And the IC50 [6]?
Answer: 10000 pM

Question: What about the IC50 [7] of the same molecule?
Answer: 280000 pM

Question: Does B9 bind [8]?
Answer: no binding

B10: CCL15/MIP-1δ digested with PMN sup #1 (ligand)
chain: VLNSFHFAADCCTSYISQSIPCSLMKSYFETSSECSKPGVIFLTKKGRQVCAKPSGPGVQDCMKKLKPYSI
Question: For B10, which EC50, THP-1 cell chemotaxis [1] is on record?
Answer: 250 pM

B11: CCL23/CKβ8 digested with PMN sup #1 (ligand)
chain: LLDRFHATSADCCISYTPRSIPCSLLESYFETNSECSKPGVIFLTKKGRRFCANPSDKQVQVCMRMLKLDTRIKTRKN
Question: How did the EC50, THP-1 cell chemotaxis [1] turn out when B11 was run?
Answer: 150 pM

B12: CCL23β Δ24 (ligand)
chain: MLWRRKIGPQMTLSHAAGFHATSADCCISYTPRSIPCSLLESYFETNSECSKPGVIFLTKKGRRFCANPSDKQVQVCMRMLKLDTRIKTRKN
notes: Begins with the 18-residue SHAAGtide insertion; R&D Systems catalog item; also called CCLβΔ24
Question: B12 was tested. Which IC50 [6] did it give?
Answer: 35000 pM

Question: And the IC50 [4]?
Answer: 20000 pM

Question: And the IC50 [7]?
Answer: 210000 pM

Question: And the IC50 [5]?
Answer: 4500 pM

Question: What about the “fold increase in binding activity over full-length CCL23β” value [3] of the same molecule?
Answer: > 10 fold
